Data reported in PMC5317049, “Ex vivo^18O-labeling mass spectrometry identifies a peripheral amyloid β clearance pathway” (Molecular Neurodegeneration, 2017).

Tests used:
[1] = target: T1, insulin-degrading enzyme (IDE) (Homo sapiens, UniProt P14735); assay: Inhibition of IDE activity by insulin; assay type: biochemical; settings: increasing insulin (0.1, 1 or 10 μM), PBS spiked with Aβ1-40 Arg13C15N, overnight, room temperature; IP-MALDI MS (Fig. 5c)
T1 construct: purchased Sigma
Experimental: […] The samples were incubated overnight at room temperature. Immunoprecipitation and mass spectrometry were conducted as described above.

Aβ1-40 = target: T2, Aβ1-40 (Homo sapiens, UniProt P05067); assay: Effect of antibodies on Aβ degradation in 5% serum; assay type: biochemical; settings: 4 μg recombinant antibody in 1 ml PBS with 0.016 μM labeled Aβ1-40, 1 h pre-incubation, then 5% serum overnight, room temperature; IP-MALDI MS
T2 construct: To 1 ml PBS containing isotopic labeled Aβ1-40 (0.016 μM) 4 μg of each of the recombinant antibodies; purchased Anaspec, Inc
Experimental: The antibodies were expressed and purified as previously described. Each sample was spiked with serum (5%, end concentration) followed by incubation overnight at room temperature. The samples were placed in a 100 °C heating block for five minutes to disrupt potential antibody/Aβ complexes, and subsequently centrifuged for 10 min at 4 °C (31.000 x g). The supernatants were transferred to new tubes and Aβ peptides were immunoprecipitated and analyzed by mass spectrometry as described above.

Aβ = settings: than solanezumab; cited from earlier work
IDE = settings: EDTA in plasma collection tubes; cited from earlier work
plasma Aβ = settings: anti-amyloid treatment; 45 (solanezumab), 9, 22 (ponezumab), 7; cited from earlier work
Description: To explore this hypothesis, we tested the effect of recombinant versions of the antibodies solanezumab, ba ...

Molecule | effect on proteolytic degradation of Aβ1-40 in serum (Aβ1-40) | increase of plasma Aβ concentration compared to physiological levels (plasma Aβ) | also measured
insulin: insulin added as competing substrate to inhibit IDE-mediated proteolytic activity |  |  | inhibition of IDE-mediated proteolysis of Aβ1-40 Arg13C15N [1]: abundance of Aβ1-20 decreased with increasing insulin concentration
crenezumab: recombinant anti-Aβ antibody crenezumab | did not block the degradation |  | affinity for Aβ compared with solanezumab (Aβ): much lower affinity
O=C(O)CN(CCN(CC(=O)O)CC(=O)O)CC(=O)O [EDTA] |  |  | effect on IDE proteolytic activity (IDE): inhibit IDE proteolytic activity
solanezumab: recombinant version of the mid-domain anti-Aβ antibody solanezumab | effectively abrogated | up to thousand-fold | 
ponezumab: C-terminal (Aβ X-40) antibody ponezumab (antibody, chains of the INN, looked up, V domains shown) VH: QVQLVQSGAEVKKPGASVKVSCKASGYYTEAYYIHWVRQAPGQGLEWMGRIDPATGNTKYAPRLQDRVTMTRDTSTSTVYMELSSLRSEDTAVYYCASLYSLPVYWGQGTTVTVSS VL: DVVMTQSPLSLPVTLGQPASISCKSSQSLLYSDAKTYLNWFQQRPGQSPRRLIYQISRLDPGVPDRFSGSGSGTDFTLKISRVEAEDVGVYYCLQGTHYPVLFGQGTRLEIK |  | up to thousand-fold | 
